According to patent US20200291118A1 (HANX BIOPHARMACEUTICS, published 2020):

Key:
hPD-1-his antigen [1] = molecular target: T1, hPD-1-his antigen (human, UniProt Q15116 25-167, limits assumed); test: ELISA on coated hPD-1-his
T1 construct: Coating antigen; not shown: his tag
Procedure: (§1) An ELISA plate was coated with hPD-1-his antigen at a concentration of 0.25 μg/ml (100 μl per well) by incubation at 4° C. overnight.
(§2) The ELISA plate coated with the hPD-1-his antigen was blocked with 1% BSA (diluted in the PBS buffer) at 37° C. for 2 hours, and then washed with 1×PBST buffer containing 1% Tween-20 for three times, with gently patting to dryness.
(§3) The absorbance of solution in each well was measured on a microplate reader under a wavelength of 450 nm.

hPD-1-his antigen [2] = molecular target: T1, hPD-1-his antigen; test: ELISA on coated hPD-1-his; antibody 1:5 of 2 µg/ml
Procedure: as §1, §2, §3

hPD-1-hIgGFc antigen [3] = molecular target: T2, hPD-1-hIgGFc antigen (human, UniProt Q15116 25-167, limits assumed); test: competition ELISA on coated hPD-1-hIgGFc; competitor PD-L2-his tag
T2 construct: not shown: human IgG Fc
Procedure: A 96-well ELISA plate was coated with hPD-1-hIgGFc antigen at a concentration of 1.0 μg/ml (100 μl per well) by incubation at 4° C. overnight.
After the 96-well ELISA plate was washed with the PBST buffer for five times and gently patted to dryness, HRP conjugated anti-his tag mouse monoclonal antibody as a secondary antibody in 1:750 dilution (50 μl per well) was added for incubation at 37° C. for 1 hour.

hPD-1-hIgGFc antigen [4] = molecular target: T2, hPD-1-hIgGFc antigen; test: competition ELISA on coated hPD-1-hIgGFc; competitor PD-L1-mIgG2aFc
Procedure: A 96-well ELISA plate was coated with hPD-1-hIgGFc antigen at a concentration of 0.5 μg/ml (50 μl per well) by incubation at 4° C. overnight.

T1 sequence (Q15116 25-167 limits assumed): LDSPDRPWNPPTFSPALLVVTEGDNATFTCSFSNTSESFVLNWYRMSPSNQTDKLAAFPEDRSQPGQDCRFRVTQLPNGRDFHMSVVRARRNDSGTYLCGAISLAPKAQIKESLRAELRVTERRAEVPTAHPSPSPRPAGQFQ
T2 sequence (Q15116 25-167 limits assumed): as above

B1: humanized antibody H8 (anti-PD-1 IgG antibody) (antibody, V domains shown)
VH: EVQLVQSGGGLVQPGGSLKLSCAASGFTFSSYGMSWVRQAPGKGLDWVATISGGGRDTYYPDSVKGRFTISRDNSKNNLYLQMNSLRAEDTALYYCARQKGEAWFAYWGQGTLVTVSA
VL: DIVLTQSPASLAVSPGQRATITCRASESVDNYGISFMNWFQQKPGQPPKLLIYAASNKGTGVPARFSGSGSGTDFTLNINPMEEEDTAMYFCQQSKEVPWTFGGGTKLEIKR
notes: also called HX008; HX008 18A10 antibody
EC50 (hPD-1-his antigen [1]): 0.05 nM | absorbance at 450 nm (hPD-1-his antigen [2]): 1.76 | IC50 (hPD-1-hIgGFc antigen [3]): 2.7 nM | IC50 (hPD-1-hIgGFc antigen [4]): 1 nM
